Test results: paper PMC10786891, “Massively parallel profiling of RNA-targeting CRISPR-Cas13d”

T1: EsCas13d, nuclease-dead (Eubacterium siraeum, UniProt B0MS50, R295A;H300A;R849A;H854A)
T1 sequence: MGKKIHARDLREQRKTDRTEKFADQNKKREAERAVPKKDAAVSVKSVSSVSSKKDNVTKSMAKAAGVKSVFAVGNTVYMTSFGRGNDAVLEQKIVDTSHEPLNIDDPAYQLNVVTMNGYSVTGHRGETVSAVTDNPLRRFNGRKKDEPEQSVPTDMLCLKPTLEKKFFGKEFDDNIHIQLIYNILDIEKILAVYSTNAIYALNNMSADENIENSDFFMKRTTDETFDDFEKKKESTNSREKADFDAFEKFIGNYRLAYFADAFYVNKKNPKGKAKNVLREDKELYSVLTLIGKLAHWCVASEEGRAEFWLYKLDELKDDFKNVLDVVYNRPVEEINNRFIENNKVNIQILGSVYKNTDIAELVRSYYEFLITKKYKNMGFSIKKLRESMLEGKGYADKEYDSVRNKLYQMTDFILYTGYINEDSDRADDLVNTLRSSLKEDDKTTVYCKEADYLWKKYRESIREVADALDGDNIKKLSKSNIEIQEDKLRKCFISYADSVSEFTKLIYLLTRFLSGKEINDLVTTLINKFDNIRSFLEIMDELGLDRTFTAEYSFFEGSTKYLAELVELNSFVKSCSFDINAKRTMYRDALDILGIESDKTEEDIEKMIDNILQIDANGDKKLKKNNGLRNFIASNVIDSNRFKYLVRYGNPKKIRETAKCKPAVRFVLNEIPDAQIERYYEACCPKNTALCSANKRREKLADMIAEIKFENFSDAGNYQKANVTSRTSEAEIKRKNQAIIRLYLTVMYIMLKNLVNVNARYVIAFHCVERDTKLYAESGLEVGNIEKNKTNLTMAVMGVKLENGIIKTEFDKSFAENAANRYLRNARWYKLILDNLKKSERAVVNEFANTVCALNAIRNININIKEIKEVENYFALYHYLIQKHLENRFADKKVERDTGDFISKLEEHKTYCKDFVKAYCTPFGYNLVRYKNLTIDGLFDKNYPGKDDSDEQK

B1: target 2 MT 5'PFS CUC 3'PFS CAA (mixed)
RNA 1: CACCCGUGCAAAAUUGCAGGGGUCUAAAACCUUCUCCAAAUUGUUUCAUCCU
RNA 2: GGGAAUGGAUCCACAUCUACGAAUUCCUCAGGAUGAAACAAUUUGGAGAAGCAAAGAUCGGAAGAGCACACGU
B2: target 2 MT 5'PFS UCA 3'PFS CCG (mixed)
RNA 1: CACCCGUGCAAAAUUGCAGGGGUCUAAAACCUUCUCCAAAUUGUUUCAUCCU
RNA 2: GGGAAUGGAUCCACAUCUACGAAUUCUCAAGGAUGAAACAAUUUGGAGAAGCCGAGAUCGGAAGAGCACACGU
B3: target 2 MT 5'PFS CUC 3'PFS CAU (mixed)
RNA 1: CACCCGUGCAAAAUUGCAGGGGUCUAAAACCUUCUCCAAAUUGUUUCAUCCU
RNA 2: GGGAAUGGAUCCACAUCUACGAAUUCCUCAGGAUGAAACAAUUUGGAGAAGCAUAGAUCGGAAGAGCACACGU
B4: target 2 MT 5'PFS CUC 3'PFS CAC (mixed)
RNA 1: CACCCGUGCAAAAUUGCAGGGGUCUAAAACCUUCUCCAAAUUGUUUCAUCCU
RNA 2: GGGAAUGGAUCCACAUCUACGAAUUCCUCAGGAUGAAACAAUUUGGAGAAGCACAGAUCGGAAGAGCACACGU
B5: target 2 MT 5'PFS UAC 3'PFS AUG (mixed)
RNA 1: CACCCGUGCAAAAUUGCAGGGGUCUAAAACCUUCUCCAAAUUGUUUCAUCCU
RNA 2: GGGAAUGGAUCCACAUCUACGAAUUCUACAGGAUGAAACAAUUUGGAGAAGAUGAGAUCGGAAGAGCACACGU
B6: target 2 MT 5'PFS GCG 3'PFS CUU (mixed)
RNA 1: CACCCGUGCAAAAUUGCAGGGGUCUAAAACCUUCUCCAAAUUGUUUCAUCCU
RNA 2: GGGAAUGGAUCCACAUCUACGAAUUCGCGAGGAUGAAACAAUUUGGAGAAGCUUAGAUCGGAAGAGCACACGU
B7: target 2 MT 5'PFS UCA 3'PFS CCU (mixed)
RNA 1: CACCCGUGCAAAAUUGCAGGGGUCUAAAACCUUCUCCAAAUUGUUUCAUCCU
RNA 2: GGGAAUGGAUCCACAUCUACGAAUUCUCAAGGAUGAAACAAUUUGGAGAAGCCUAGAUCGGAAGAGCACACGU
B8: target 2 MT 5'PFS UAC 3'PFS AUC (mixed)
RNA 1: CACCCGUGCAAAAUUGCAGGGGUCUAAAACCUUCUCCAAAUUGUUUCAUCCU
RNA 2: GGGAAUGGAUCCACAUCUACGAAUUCUACAGGAUGAAACAAUUUGGAGAAGAUCAGAUCGGAAGAGCACACGU
B9: target 2 MT 5'PFS UGG 3'PFS AAU (mixed)
RNA 1: CACCCGUGCAAAAUUGCAGGGGUCUAAAACCUUCUCCAAAUUGUUUCAUCCU
RNA 2: GGGAAUGGAUCCACAUCUACGAAUUCUGGAGGAUGAAACAAUUUGGAGAAGAAUAGAUCGGAAGAGCACACGU
B10: target 2 MT 5'PFS AAU 3'PFS UCU (mixed)
RNA 1: CACCCGUGCAAAAUUGCAGGGGUCUAAAACCUUCUCCAAAUUGUUUCAUCCU
RNA 2: GGGAAUGGAUCCACAUCUACGAAUUCAAUAGGAUGAAACAAUUUGGAGAAGUCUAGAUCGGAAGAGCACACGU
B11: target 2 MT 5'PFS UAC 3'PFS AUA (mixed)
RNA 1: CACCCGUGCAAAAUUGCAGGGGUCUAAAACCUUCUCCAAAUUGUUUCAUCCU
RNA 2: GGGAAUGGAUCCACAUCUACGAAUUCUACAGGAUGAAACAAUUUGGAGAAGAUAAGAUCGGAAGAGCACACGU
B12: target 2 MT 5'PFS UAU 3'PFS UAU (mixed)
RNA 1: CACCCGUGCAAAAUUGCAGGGGUCUAAAACCUUCUCCAAAUUGUUUCAUCCU
RNA 2: GGGAAUGGAUCCACAUCUACGAAUUCUAUAGGAUGAAACAAUUUGGAGAAGUAUAGAUCGGAAGAGCACACGU
B13: target 2 MT 5'PFS UGU 3'PFS AUU (mixed)
RNA 1: CACCCGUGCAAAAUUGCAGGGGUCUAAAACCUUCUCCAAAUUGUUUCAUCCU
RNA 2: GGGAAUGGAUCCACAUCUACGAAUUCUGUAGGAUGAAACAAUUUGGAGAAGAUUAGAUCGGAAGAGCACACGU
B14: target 2 MT 5'PFS AAA 3'PFS CCU (mixed)
RNA 1: CACCCGUGCAAAAUUGCAGGGGUCUAAAACCUUCUCCAAAUUGUUUCAUCCU
RNA 2: GGGAAUGGAUCCACAUCUACGAAUUCAAAAGGAUGAAACAAUUUGGAGAAGCCUAGAUCGGAAGAGCACACGU
B15: target 2 MT 5'PFS CAC 3'PFS AUC (mixed)
RNA 1: CACCCGUGCAAAAUUGCAGGGGUCUAAAACCUUCUCCAAAUUGUUUCAUCCU
RNA 2: GGGAAUGGAUCCACAUCUACGAAUUCCACAGGAUGAAACAAUUUGGAGAAGAUCAGAUCGGAAGAGCACACGU
B16: target 2 MT 5'PFS UCA 3'PFS CCA (mixed)
RNA 1: CACCCGUGCAAAAUUGCAGGGGUCUAAAACCUUCUCCAAAUUGUUUCAUCCU
RNA 2: GGGAAUGGAUCCACAUCUACGAAUUCUCAAGGAUGAAACAAUUUGGAGAAGCCAAGAUCGGAAGAGCACACGU
B17: target 2 MT 5'PFS AAA 3'PFS CCG (mixed)
RNA 1: CACCCGUGCAAAAUUGCAGGGGUCUAAAACCUUCUCCAAAUUGUUUCAUCCU
RNA 2: GGGAAUGGAUCCACAUCUACGAAUUCAAAAGGAUGAAACAAUUUGGAGAAGCCGAGAUCGGAAGAGCACACGU
B18: target 2 MT 5'PFS UAC 3'PFS AUU (mixed)
RNA 1: CACCCGUGCAAAAUUGCAGGGGUCUAAAACCUUCUCCAAAUUGUUUCAUCCU
RNA 2: GGGAAUGGAUCCACAUCUACGAAUUCUACAGGAUGAAACAAUUUGGAGAAGAUUAGAUCGGAAGAGCACACGU
B19: target 2 MT 5'PFS AAA 3'PFS CCA (mixed)
RNA 1: CACCCGUGCAAAAUUGCAGGGGUCUAAAACCUUCUCCAAAUUGUUUCAUCCU
RNA 2: GGGAAUGGAUCCACAUCUACGAAUUCAAAAGGAUGAAACAAUUUGGAGAAGCCAAGAUCGGAAGAGCACACGU
B20: target 2 MT 5'PFS GCG 3'PFS CUC (mixed)
RNA 1: CACCCGUGCAAAAUUGCAGGGGUCUAAAACCUUCUCCAAAUUGUUUCAUCCU
RNA 2: GGGAAUGGAUCCACAUCUACGAAUUCGCGAGGAUGAAACAAUUUGGAGAAGCUCAGAUCGGAAGAGCACACGU
B21: target 2 MT 5'PFS GCC 3'PFS UGA (mixed)
RNA 1: CACCCGUGCAAAAUUGCAGGGGUCUAAAACCUUCUCCAAAUUGUUUCAUCCU
RNA 2: GGGAAUGGAUCCACAUCUACGAAUUCGCCAGGAUGAAACAAUUUGGAGAAGUGAAGAUCGGAAGAGCACACGU
B22: target 2 MT 5'PFS GCC 3'PFS UGC (mixed)
RNA 1: CACCCGUGCAAAAUUGCAGGGGUCUAAAACCUUCUCCAAAUUGUUUCAUCCU
RNA 2: GGGAAUGGAUCCACAUCUACGAAUUCGCCAGGAUGAAACAAUUUGGAGAAGUGCAGAUCGGAAGAGCACACGU
B23: target 2 MT 5'PFS CUU 3'PFS AUA (mixed)
RNA 1: CACCCGUGCAAAAUUGCAGGGGUCUAAAACCUUCUCCAAAUUGUUUCAUCCU
RNA 2: GGGAAUGGAUCCACAUCUACGAAUUCCUUAGGAUGAAACAAUUUGGAGAAGAUAAGAUCGGAAGAGCACACGU
B24: target 2 MT 5'PFS CAC 3'PFS AUG (mixed)
RNA 1: CACCCGUGCAAAAUUGCAGGGGUCUAAAACCUUCUCCAAAUUGUUUCAUCCU
RNA 2: GGGAAUGGAUCCACAUCUACGAAUUCCACAGGAUGAAACAAUUUGGAGAAGAUGAGAUCGGAAGAGCACACGU
B25: target 2 MT 5'PFS CCU 3'PFS CCA (mixed)
RNA 1: CACCCGUGCAAAAUUGCAGGGGUCUAAAACCUUCUCCAAAUUGUUUCAUCCU
RNA 2: GGGAAUGGAUCCACAUCUACGAAUUCCCUAGGAUGAAACAAUUUGGAGAAGCCAAGAUCGGAAGAGCACACGU
B26: target 2 MT 5'PFS AAU 3'PFS UCC (mixed)
RNA 1: CACCCGUGCAAAAUUGCAGGGGUCUAAAACCUUCUCCAAAUUGUUUCAUCCU
RNA 2: GGGAAUGGAUCCACAUCUACGAAUUCAAUAGGAUGAAACAAUUUGGAGAAGUCCAGAUCGGAAGAGCACACGU
B27: target 1 insU 3' of 17,insG 3' of 2 (mixed)
RNA 1: CACCCGUGCAAAAAUGCAGGGGUCUAAAACUGAGCGGAUAACCUCUCUAUGG
RNA 2: GGGAAUGGAUCCACAUCUACGAAUUCGUACCAUAGUAGAGGUUAUCCGCUCGACCGAGAUCGGAAGAGCACACGU
B28: target 1 insA 3' of 19,insC 3' of 10 (mixed)
RNA 1: CACCCGUGCAAAAAUGCAGGGGUCUAAAACUGAGCGGAUAACCUCUCUAUGG
RNA 2: GGGAAUGGAUCCACAUCUACGAAUUCGUACCAUAAGAGAGGUUCAUCCGCUCACCGAGAUCGGAAGAGCACACGU

What follows are binders tested against T1, EsCas13d, nuclease-dead (assay: crRNA (strand 1, pre-loaded); Mg2+; 40 mM Tris-HCl pH 7.5, 150 mM NaCl, 6 mM MgCl2, 1 mM DTT, 0.1% Tween-20, 0.2 mg/ml BSA; 25 C; 10 min per concentration, then washed). Conditions: tags: His6-TwinStrep-SUMO cleaved; N-terminal SNAP kept (SNAP-Surface 488); label: 3' end held by stalled T7 RNA polymerase.
B1 gave a Kd of 1.72 ± 0.2 nM.
B2 was tested, and the Kd was 5 ± 0.9 nM.
In the case of B3, the Kd is reported as 1.82 ± 0.19 nM.
Work on B4 yielded a Kd of 3.9 ± 0.9 nM.
B5 gave a Kd of 6.8 ± 1.4 nM.
B6 was tested, and the Kd was 24 ± 6 nM.
B7 gave a Kd of roughly 30 nM.
Work on B8 yielded a Kd of 7 ± 1.7 nM.
B9 gave a Kd of 5.9 ± 0.7 nM.
With B10 the Kd was 10.7 ± 2 nM.
B11 gave a Kd of 4.9 ± 0.7 nM.
B12 showed a Kd of 35 ± 8 nM.
Work on B13 yielded a Kd of 11.9 ± 1.7 nM.
B14 was tested, and the Kd was 34 ± 13 nM.
B15 gave a Kd of 2 ± 0.4 nM.
Work on B16 yielded a Kd of 10 ± 4 nM.
B17 showed a Kd of 5.7 ± 0.9 nM.
B18 showed a Kd of 9.3 ± 2.9 nM.
Work on B19 yielded a Kd of 10 ± 2.5 nM.
Binder B20 has a Kd of 21 ± 4 nM.
For B21, the Kd was 17 ± 5 nM.
B22 gave a Kd of 10.9 ± 1.7 nM.
Work on B23 yielded a Kd of 4.7 ± 0.7 nM.
B24 gave a Kd of 1.4 ± 0.21 nM.
B25 gave a Kd of 1.72 ± 0.2 nM.
Binder B26 has a Kd of 11.8 ± 1.9 nM.
Binder B27 has a Kd of 19.8 ± 2.5 nM.
B28 showed a Kd of 40 ± 4 nM.
